Laboratory results taken from the RNAGym collection of RNA variant scans (doi:10.1093/molbev/msab373).

B1: Azoarcus group I ribozyme (parent)
chain: GUGCCUUGCGCCGGGAAACCACGCAAGGGAUGGUGUCAAAUUCGGCGAAACCUAAGCGCCCGCCCGGGCGUAUGGCAACGCCGAGCCAAGCUUCGGCGCCUGCGCCGAUGAAGGUGUAGAGACUAGACGGCACCCACCUAAGGCAAACGCUAUGGUGAAGGCAUAGUCCAGGGAGUGGCGAAAGUCACACAAACCGG

Variants of: B1
Test: reverse-splicing fitness (ratio to wild type); higher = more active; in vitro selection; Mg2+ level not given
Procedure, shortened: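 An in vitro group I ribozyme library with randomized positions was T7-transcribed and gel-purified. In triplicate, 10 pmol RNA in EPPS pH 7.5 was reacted with 50 pmoles of a 30-nt RNA substrate for 1 h at 37 °C across several added MgCl2 levels (1–48 mM), then stopped with EDTA. Products were reverse transcribed from a substrate-complementary primer, PCR-amplified and sequenced (HiSeq 4000). Fitness is a variant's read proportion after selection over that before, normalised to wild type.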

In order of falling reverse-splicing fitness:
1. C82A A145U  0.635
2. C82A A145G  0.631
3. C82A A145C  0.586
4. C82A U176C  0.484
5. C82A A145U U176C  0.482
6. C82A U176A  0.407
7. C82A A145U U176A  0.386
8. C82A A145U U176G  0.157
9. C82A A145C C150U  0.151
10. C82A U176G  0.12
11. C82A A145C C150U U176C  0.113
12. C82A A145C C150U U176A  0.101
13. C82A A145C C150G  0.0739
14. C82A C150A U176C  0.0632
15. C82A A145U C150A U176C  0.0555
16. C82A A145C C150G U176C  0.0535
17. C82A C150A U176A  0.0524
18. C82A A145G C150G U176C  0.0513
19. C82A A145U C150A U176A  0.0485
20. C82A A145C C150G U176A  0.0383
21. C82A A145C C150U U176G  0.0335
22. C82A A145C C150A  0.0312
23. C82A A145G C150G U176A  0.0291
24. C82G A111C A120C A145C C169G U176A  0.0259
25. C82A A145C C169G U176A  0.0247
26. C82G A111C A120C A145G C150A C169G U176C  0.0228
27. C82A A145G C150A C169A U176C  0.0221
28. C82A C150A U176G  0.021
29. C82G A111C A120C A145C C169G U176C  0.0205
30. C82A A145G C150A C169A U176A  0.0195
31. C82A A145U C150A U176G  0.0181
32. C82G A111C A120C A145C C150A C169U U176A  0.0176
33. C82G A111C A120C A145C C169A U176A  0.0175
34. C82A C150A C169U U176C  0.0166
35. C82A C169U U176A  0.0166
36. C82A A145G C169U  0.0161
37. C82G A111C A120C A145G C150A C169G U176A  0.0156
38. C82A C169U  0.0153
39. C82A C169U U176C  0.0153
40. C82A C150A C169U U176A  0.0152
41. C82A A145C C169G U176C  0.0138
42. C82A A145U C150U C169G U176C  0.013
43. C82A A145U C150A C169A U176A  0.0129
44. C82A A145U C150U C169G U176A  0.0124
45. C82G A111C A120C A145C C150A C169U U176C  0.0123
46. C82G A111C A120C A145C C150G C169U U176C  0.0123
47. C82A A145U C150U C169A U176A  0.0121
48. C82G A111C A120C A145C C169A U176C  0.0118
49. C82A A145G C150G U176G  0.0113
50. C82A C150G C169A U176A  0.0112
51. C82A A145G C169A  0.0112
52. C82A C150G C169A U176C  0.0111
53. C82A A145G C169G  0.0111
54. C82A A145U C150A C169A U176C  0.0105
55. C82A C169A  0.00967
56. C82A C169G  0.00961
57. C82G A111C A120C A145C C150G C169U  0.00944
58. C82A A145U C150U C169A U176C  0.00936
59. C82A A145C C169A U176A  0.0087
60. C82G A111C A120C A145C C150G C169A  0.00859
61. C82G A111C A120C A145C C150G U176C  0.00825
62. C82G A111C A120C A145C C150G C169U U176A  0.00824
63. C82A A145C C150G C169U U176A  0.00823
64. C82A A145C C150G U176G  0.00808
65. C82G A111C A120C A145C C150A C169U U176G  0.00799
66. C82G A111C A120C A145G C150A C169G U176G  0.00768
67. C82A A145C C150G C169U U176C  0.00749
68. C82A A145G C150A C169A U176G  0.00695
69. C82A C150G C169A U176G  0.00678
70. C82A C150A C169U U176G  0.00672
71. C82G A111C A120C A145C C150G C169G  0.00653
72. C82A A145C C169A U176C  0.00644
73. C82G A111C A120C A145C C169A U176G  0.0064
74. C82G A111C A120C A145C C169G U176G  0.0061
75. C82A A145U C150U C169A U176G  0.00602
76. C82G A111C A120C A145C C150G C169U U176G  0.00572
77. C82A A145U C150U C169G U176G  0.00539
78. C82A A145C C150G C169U U176G  0.00534
79. C82A A145U C150A C169A U176G  0.0053
80. C82G A111C A120C A145C C150G U176A  0.00528
81. C82A A145C C169A U176G  0.00487
82. C82A C169U U176G  0.00459
83. C82A A145C C169G U176G  0.00402
84. C82G A111C A120C A145C C150G U176G  0.00325
